Measurements published in patent US20260234234A1 (QILU PUGET SOUND BIOTHERAPEUTICS, published 2026).

T1: hST2-Fc protein from R&D Systems (cat no. 523-ST-100) (human, UniProt Q01638 19-328, limits assumed)
T1 construct: Bought reagent; also called human ST2
T1 sequence (looked up): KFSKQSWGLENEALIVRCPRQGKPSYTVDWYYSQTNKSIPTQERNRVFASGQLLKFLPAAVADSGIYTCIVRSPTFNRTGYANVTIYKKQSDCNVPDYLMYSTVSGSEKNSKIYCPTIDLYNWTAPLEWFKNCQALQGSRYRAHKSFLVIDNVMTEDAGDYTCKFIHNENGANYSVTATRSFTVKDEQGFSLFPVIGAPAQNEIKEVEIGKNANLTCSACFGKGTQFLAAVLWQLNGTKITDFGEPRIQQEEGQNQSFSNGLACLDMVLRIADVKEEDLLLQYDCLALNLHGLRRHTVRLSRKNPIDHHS

T2: His6-tagged cyIL-33 (Ser112-Ile270), QB10976 (cynomolgus monkey)
T2 construct: Entry includes N-terminal Avitag, FLAG and His6 tags; isoform X1, NCBI XP_005581824; also called cyIL-33 antigen
T2 chain: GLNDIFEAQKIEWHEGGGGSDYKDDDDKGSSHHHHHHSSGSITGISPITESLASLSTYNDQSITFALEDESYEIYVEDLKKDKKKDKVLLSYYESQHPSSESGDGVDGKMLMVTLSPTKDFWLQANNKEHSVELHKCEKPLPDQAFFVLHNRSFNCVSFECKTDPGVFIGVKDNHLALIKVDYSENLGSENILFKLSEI

B1: Avitag_c-MYC_His6-tagged hIL-33 (Ser112-Thr270), QB10975 (ligand)
chain: GLNDIFEAQKIEWHEGGGGSEQKLISEEDLGSSHHHHHHSSGSITGISPITEYLASLSTYNDQSITFALEDESYEIYVEDLKKDEKKDKVLLSYYESQHPSNESGDGVDGKMLMVTLSPTKDFWLHANNKEHSVELHKCEKPLPDQAFFVLHNMHSNCVSFECKTDPGVFIGVKDNHLALIKVDSSENLCTENILFKLSET
notes: Entry includes N-terminal Avitag, c-MYC and His6 tags; reduced with DTT to the active form; also called active hIL-33; reduced hIL-33

Key:
[1] = biological target: T1, hST2-Fc protein from R&D Systems (cat …); assay: SPR, hST2-Fc immobilised on CM5, RU against hIL-33 concentration, 1 min association; 1 min association
Description: (§1) Assessment was performed by SPR (Surface Plasmon Resonance) using Biacore 2000. The x-axis represents antibody concentration (nM), the y-axis represents the Response Units (RU) after correction by blank buffer.
(§2) The binding capacity as Response Units (RU) was recorded.

[2] = biological target: T1, hST2-Fc protein from R&D Systems (cat …); assay: SPR, hST2-Fc immobilised on CM5, RU against hIL-33 concentration, 2 min association; 2 min association
Description: as §1, §2

[3] = biological target: T2, His6-tagged cyIL-33 (Ser112-Ile270), …; assay: SPR, captured antibody, cyIL-33 analyte, 25 C, 1:1 fit
Description: (§3) The polyclonal goat-anti-human IgG (Fc specific) antibodies were immobilized on a CM4 chip surface using a standard amine coupling method. […] After each cycle, the chip was regenerated with 10 mM glycine-HCl, pH 1.5. The results were analyzed using Biacore T200 evaluation software V3.2. Results were double referenced and fit to a 1:1 interaction model.
(§4) The kinetic binding data was obtained using SPR on a Biacore T200 equipment. […] The complex was allowed to associate for 3 min and dissociate for up to 1 hr. At the end of each cycle the CM4 chips were regenerated with 10 mM glycine pH1.5. The T200 Evaluation software V3.2 was used to align and double reference the data.

[4] = biological target: B1; assay: SPR, captured antibody, hIL-33 analyte, 37 C, 1:1 fit
Description: as §3, §4

[5] = biological target: B1; assay: SPR
Description: (§5) The kinetic binding data was obtained using SPR on a Biacore T200 equipment. […] The complex was allowed to associate for 3 min and dissociate for up to 1 hr. At the end of each cycle the CM4 chips were regenerated with 10 mM glycine pH1.5. The T200 Evaluation software V3.2 was used to align and double reference the data. The results were fit to a 1:1 binding model using the global data analysis option within the software.

[6] = biological target: T2, His6-tagged cyIL-33 (Ser112-Ile270), …; assay: SPR, cyIL-33 analyte
Description: as §5

EC50 [1] | EC50 [2] | Kd [3] | koff [3] | kon [3] | Kd [4] | koff [4] | kon [4] | fold increase of affinity against parental antibody QB11119 [5] | fold improvement of affinity against parental antibody QB11119 [6] | Binder
10.8 nM | 5.17 nM |  |  |  |  |  |  |  |  | B1
 |  | 4.89 nM | 0.00188 s⁻¹ | 384000 M⁻¹ s⁻¹ | 0.207 nM | 0.000669 s⁻¹ | 3.23e+06 M⁻¹ s⁻¹ | ~2 fold | ~3 fold | anti-hIL-33 IgG1 antibody QB11421 (antibody, IgG1 L234A, L235A, P329A; also called top clone as IgG1) heavy: EVQLLESGGGLVQPGGSLRLSCAASGFTFYSSAMSWFRQTQGKGLEWVSTISSGGSNTYYPDSVKGRFTISRDNSKNTLYLQMNSLGAEDTAVYYCASAYYGRRYDAMDYWGQGTLVTVSSASTKGPSVFPLAPSSKSTSGGTAALGCLVKDYFPEPVTVSWNSGALTSGVHTFPAVLQSSGLYSLSSVVTVPSSSLGTQTYICNVNHKPSNTKVDKKVEPKSCDKTHTCPPCPAPEAAGGPSVFLFPPKPKDTLMISRTPEVTCVVVDVSHEDPEVKFNWYVDGVEVHNAKTKPREEQYNSTYRVVSVLTVLHQDWLNGKEYKCKVSNKALAAPIEKTISKAKGQPREPQVYTLPPSREEMTKNQVSLTCLVKGFYPSDIAVEWESNGQPENNYKTTPPVLDSDGSFFLYSKLTVDKSRWQQGNVFSCSVMHEALHNHYTQKSLSLSPGK light: DVVMTQSPPSLPVTLGQSASISCKSSESLLHSNANTYLYWFQQRPGQSPQLLIYRGSNLASGVPDRFSGSGSGTDFTLKISRVEAEDVGVYYCMQHLRNPYTFGQGTKVEIKRTVAAPSVFIFPPSDEQLKSGTASVVCLLNNFYPREAKVQWKVDNALQSGNSQESVTEQDSKDSTYSLSSTLTLSKADYEKHKVYACEVTHQGLSSPVTKSFNRGEC
